Our source for the grafting yield relative to the initial amount contacted with the modified hydrogels and stoichiometry N (mol IgG per mol ZZ-CBM3) values is paper PMC8227779.

This assay deals with ZZ-CBM3 (Staphylococcus aureus). In words: pull-down; ZZ-CBM3 pre-anchored on discs of cellulose hydrogel (8Cell, 14Cell, 18Cell; 5 mm, 30 mg); 100 uL of IgG (0.312-10.0 uM) in TST buffer incubated 18 h at 37 °C; free IgG in the supernatant by absorbance at 280 nm (NanoDrop), bound IgG by mass balance; triplicates.

As for “Human normal immunoglobulin (IgG) (antibody)”, the grafting yield relative to the initial amount contacted with the modified hydrogels lay within 26 to 89% and the stoichiometry N (mol IgG per mol ZZ-CBM3) stood at 1.
